Experimental data from PMC4990646, “DELLA proteins are common components of symbiotic rhizobial and mycorrhizal signalling pathways” (Nature Communications, 2016).

B1: MBP-IPD3 (natural protein, M. truncatula, UniProt A7TUE1 1-513, looked up)
chain: MEGRGFSGLYKNSSEELFLKTVMESPIGMPVPTMEMLGFKTVSQSFRTDSEELFKRWLTNDQEGYNSSSMGLNSRLSKRISTEIANMSNQQHIGVASEGRNNDKSCLQNNFLANDVSSDFNFPIRDPVDRELQSSNLFLAKAWFITDQRMTRSRSSELRRRYTEMQNSQAPQGLDSMFMVPEHDTNTIKEELANFNGFDYLSMCELPSQKGTFMSPSNSSSSTFNTHQLVDVDKVSSCVSMLKGTLQRKKLECQVEKEAAEDGLNEIFCIREPLFQSAFNEEESWNQQKLVNVQGDFTDQVNDPGVMQTLEGTTNFVLDGFANQTNQIQGRTASGEPSQSESSAAAPVISSGLDACEGPSNSNQTLGDSSWKQVGESTQNKVRGVREQIMDNLKDDRKRKSLERYGSVTSAVSDGKMDNTKKRRVERSRKMAEAKERNLTPTIPSDMQAILKRCENLEKEVRSLKLNLSFMNRKDSEQTKQIEDLQKQNEDLADEKERLLEEIERILSETGKI
notes: IPD3 (CYCLOPS) of Medicago truncatula; also called MBP-IPD3 fusion protein; source: E. coli, purified (amylose resin), held on the resin; not shown: MBP, N-terminal, kept
B2: HIS-MtDELLA1 (natural protein, M. truncatula, UniProt A0A396IUP1 1-594, looked up)
chain: MKREHQESFGGGVISNNNKTNTNHLNSSKNINFGECSSMQNTNTKQNMWREEKETNGGGMDELLAALGYKVRSSDMADVAQKLEQLEMVMGSAQEEGINHLSSDTVHYDPTDLYSWVQTMLTELNPDSSQINDPLASLGSSSEILNNTFNDDSEYDLSAIPGMAAYPPQEENTAAKRMKTWSEPESEPAVVMSPPPAVENTRPVVLVDTQETGVRLVHTLMACAEAIQQKNLKLAEALVKHISLLASLQTGAMRKVASYFAQALARRIYGNPEETIDSSFSEILHMHFYESSPYLKFAHFTANQAILEAFAGAGRVHVIDFGLKQGMQWPALMQALALRPGGPPTFRLTGIGPPQADNTDALQQVGWKLAQLAQTIGVQFEFRGFVCNSIADLDPNMLEIRPGEAVAVNSVFELHTMLARPGSVEKVLNTVKKINPKIVTIVEQEANHNGPVFVDRFTEALHYYSSLFDSLEGSNSSSNNSNSNSTGLGSPSQDLLMSEIYLGKQICNVVAYEGVDRVERHETLTQWRSRMGSAGFEPVHLGSNAFKQASTLLALFAGGDGYRVEENNGCLMLGWHTRSLIATSAWKLPQNESK
notes: MtDELLA1 of Medicago truncatula; the trigger factor is inferred from the vector pCold-TF; also called HIS-tagged MtDELLA1; source: E. coli, purified (Ni-NTA Agarose); not shown: His tag, N-terminal, kept
B3: HIS-MtDELLA2 (natural protein, M. truncatula, UniProt A0A396GMX6 1-533, looked up)
chain: MKREHKLEHEDMSSGSGKSGVCWEDDGGGMDELLAVVGYKVKSSDMAEVAQKLEQLEQAMMGNNFHDHDESTIAQHLSNDTVHYNPSDISNWLQTMLSNFDPQPNNPSVNSDDNDLNAIPGKAIYAADEFTSRKRVKRNESVTVTTESTTTRPIMVVETQEKGIRLVHSLMACAEAVEQNNLKMAEALVKQIGYLAVSQEGAMRKVATYFAEGLARRIYGVFPQHSVSDSLQIHFYETCPNLKFAHFTANQAILEAFQGKSSVHVIDFSINQGMQWPALMQALALRPGGPPAFRLTGIGPPASDNSDHLQQVGWRLAQFAQTIHVQFEYRGFVANSLADLDASMLELRSPETESVAVNSVFELHKLNARPGALEKVFSVIRQIRPEIVTVVEQEANHNGPAFLDRFTESLHYYSTLFDSLEGSSVEPQDKAMSEVYLGKQICNVVACEGTDRVERHETLNQWRNRFNSAGFSPVHLGSNAFKQASMLLALFAGGDGYKVEENDGCLMLGWHTRPLIATSAWKLAAANSVVVSH
notes: MtDELLA2 of Medicago truncatula; the trigger factor is inferred from the vector pCold-TF; also called HIS-tagged MtDELLA2; source: E. coli, purified (Ni-NTA Agarose); not shown: His tag, N-terminal, kept

Experiments:
Assay in all cases: pull-down; MBP fusion on amylose resin captures purified HIS-tagged MtDELLA; western blot with anti-MBP and anti-HIS
Settings in all cases: both partners purified
[1] = biological target: B2
[2] = biological target: B3
[3] = biological target: T1, MBP-NSP2 (M. truncatula, UniProt Q5NE24 1-508)
T1 construct: NSP2 of Medicago truncatula; source: E. coli, purified (amylose resin), held on the resin; not shown: MBP, N-terminal, kept
T1 sequence (Q5NE24 whole entry, the tested form may be a part): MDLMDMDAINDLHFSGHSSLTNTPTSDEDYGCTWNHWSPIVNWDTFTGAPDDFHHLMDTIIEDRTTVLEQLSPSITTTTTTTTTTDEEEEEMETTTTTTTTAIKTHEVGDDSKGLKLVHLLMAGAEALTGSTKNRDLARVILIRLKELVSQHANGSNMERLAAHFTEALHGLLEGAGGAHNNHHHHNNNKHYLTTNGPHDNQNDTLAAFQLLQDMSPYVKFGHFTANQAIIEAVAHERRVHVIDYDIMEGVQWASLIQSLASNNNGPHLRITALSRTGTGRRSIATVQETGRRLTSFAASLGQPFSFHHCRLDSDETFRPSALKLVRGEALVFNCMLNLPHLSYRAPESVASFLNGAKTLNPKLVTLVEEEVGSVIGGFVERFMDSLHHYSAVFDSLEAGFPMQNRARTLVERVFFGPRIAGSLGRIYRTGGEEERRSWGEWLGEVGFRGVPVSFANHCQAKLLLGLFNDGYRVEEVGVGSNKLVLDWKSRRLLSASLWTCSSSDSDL

Row | Binder | binding result [1] | binding result [2] | binding result [3]
1 | B1 | binds | binds | 
2 | B2 |  |  | binds
3 | B3 |  |  | binds
